Experiment [1] addresses T1, rat calcitonin receptor (rat, UniProt P32214 25-516).
T1 construct: whole, on cells; Membranes of transiently transfected BHK tk'ts 13 cells (Assay VIII); also called rCTR
T1 sequence (looked up): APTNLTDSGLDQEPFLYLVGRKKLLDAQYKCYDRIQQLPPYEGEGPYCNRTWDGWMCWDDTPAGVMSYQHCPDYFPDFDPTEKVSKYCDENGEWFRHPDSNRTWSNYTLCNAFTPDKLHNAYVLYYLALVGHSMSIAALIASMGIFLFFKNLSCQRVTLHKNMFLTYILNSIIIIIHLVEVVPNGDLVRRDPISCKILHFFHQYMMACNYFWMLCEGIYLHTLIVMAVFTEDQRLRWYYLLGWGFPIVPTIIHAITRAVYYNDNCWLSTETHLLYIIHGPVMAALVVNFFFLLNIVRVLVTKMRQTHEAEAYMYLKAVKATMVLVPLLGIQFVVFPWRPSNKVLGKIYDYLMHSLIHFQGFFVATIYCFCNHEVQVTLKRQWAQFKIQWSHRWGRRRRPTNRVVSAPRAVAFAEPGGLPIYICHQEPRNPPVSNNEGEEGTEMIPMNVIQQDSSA
Description: SPA competition with 125I-calcitonin, membranes of BHK cells with rat calcitonin receptor (Assay VIII).

For experiment [2], the target named is T2, rat amylin receptor (rat calcitonin receptor + rat RAMP 3) (rat, UniProt P32214 25-516; Q9JJ73 23-147).
T2 construct: whole, on cells; Membranes of transiently transfected BHK tk'ts 13 cells (Assay VI); also called rAmylin-R; rat amylin 3(a) receptor
T2 sequence (looked up) 1: T1 sequence (looked up)
T2 sequence (looked up) 2: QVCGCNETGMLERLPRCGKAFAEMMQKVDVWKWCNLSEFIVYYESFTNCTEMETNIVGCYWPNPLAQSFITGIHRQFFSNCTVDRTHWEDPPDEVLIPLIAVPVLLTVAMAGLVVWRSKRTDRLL
As to the kind of experiment: SPA competition with 125I-rat amylin, membranes of BHK cells with rat calcitonin receptor + rat RAMP3 (Assay VI).

In experiment [3] the target is T1, rat calcitonin receptor. As to the kind of experiment: ratio IC50 rat calcitonin receptor / IC50 rat amylin receptor (reference).
Experiment [4] has as its target T3, human calcitonin receptor (human, UniProt P30988 25-474).
T3 construct: whole, on cells; Membranes of a stably transfected BHK cell line (Assay VII); also called hCTR; hCT
T3 sequence (looked up): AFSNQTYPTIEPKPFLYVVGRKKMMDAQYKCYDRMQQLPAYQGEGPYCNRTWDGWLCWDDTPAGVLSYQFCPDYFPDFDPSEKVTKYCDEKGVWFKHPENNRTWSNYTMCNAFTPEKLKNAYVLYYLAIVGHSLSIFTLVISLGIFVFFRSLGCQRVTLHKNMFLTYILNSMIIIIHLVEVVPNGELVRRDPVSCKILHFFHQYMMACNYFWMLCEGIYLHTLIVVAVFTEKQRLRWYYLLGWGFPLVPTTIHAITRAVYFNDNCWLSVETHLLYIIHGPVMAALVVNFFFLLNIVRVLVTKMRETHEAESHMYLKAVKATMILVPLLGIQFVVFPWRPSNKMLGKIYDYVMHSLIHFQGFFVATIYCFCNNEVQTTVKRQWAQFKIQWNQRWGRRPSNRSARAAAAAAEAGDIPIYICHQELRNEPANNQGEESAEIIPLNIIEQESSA
As to the kind of experiment: ratio IC50 human calcitonin receptor / IC50 human amylin receptor (reference). On the procedure:
The resulting pellet was resuspended, homogenized and centrifuged (20.000 rpm, 15 min) in a buffer containing 20 mM Na-HEPES and 0.1 mM EDTA (pH 7.4, buffer 2). The resulting pellet was resuspended in buffer 2 and protein concentration was measured (BCA protein Assay, Pierce). The homogenate was kept cold during the whole procedure. The membranes were kept at −80° C. until use. The assay was performed in a 384 well Optiplate (PerkinElmer) in a total volume of 40 ul. Membranes were mixed with SPA beads. Final concentration of membranes 35 ng/μL final and SPA beads was 0.05 mg/well. Test-compounds were dissolved in DMSO and further diluted in assay buffer (50 mM Hepes, pH 7.4, 1 mM CaCl2, 5 mM MgCl₂, 0.1% OA and 0.02% Tween20). […] The final mixture was incubated with shaking at 400 rpm for 120 min at 25° C. prior to centrifugation (1500 rpm, 10 min). Samples were analyzed on TopCounter™ (Packard). The IC₅₀ was calculated using (one site binding competition analysis) GraphPad Prism5 as a measure of receptor affinity.
Membranes were prepared in the following way; the cells were rinsed with PBS and incubated with Versene for approximately 5 min before harvesting. The cells were flushed with PBS and the cell-suspension was centrifuged for 5 min at 1000 rpm. Cells were homogenized (Ultrathurrax) in a buffer containing 20 mM Na-HEPES and 10 mM EDTA (pH 7.4) and centrifuged at 20.000 rpm for 15 min. The resulting pellet was resuspended, homogenized and centrifuged (20.000 rpm, 15 min) in a buffer containing 20 mM Na-HEPES and 0.1 mM EDTA (pH 7.4, buffer 2). The resulting pellet was resuspended in buffer 2 and protein concentration was measured (BCA protein Assay, Pierce). The homogenate was kept cold during the whole procedure. The membranes were kept at −80° C. until use. Assay was performed in a 384 well Optiplate (PerkinElmer) in a total volume of 40 ul. Membranes were mixed with SPA beads.

The record followed here is patent publication US20140087995A1 (published 2014).

What is called IC50 is the concentration that inhibits the measured activity by half.

Numbered stars: 1 amine (or outer) side, 2 acyl side, 3 side chain; on linkers, the order of the positions; unused ones are H or OH. Bridge positions count the residues as written; N and C are the ends. Side chains are listed from the residue outwards. Ends that are not written are not given here. * marks the point of attachment. C20 diacid = O=C(O)CCCCCCCCCCCCCCCCCCC(=O)*; γGlu = O=C(O)[C@H](CCC(=O)[*:2])N[*:1]; AEEA = NCCOCCOCC(=O)O

B1: N^ε1-[2-[2-[2-(19-carboxynonadecanoylamino)ethoxy]ethoxy]acetyl]-[Arg17,Pro21,Pro27,His34]-h-amylin (peptide)
peptide: K([AEEA-C20 diacid])CNTATCATQRLANFLRHSSPNFGAIPSSTNVGHNTY-NH2
modifications: disulfide 2-7; N-terminus assumed
SMILES: CC[C@H](C)[C@H](NC(=O)[C@H](C)NC(=O)CNC(=O)[C@H](Cc1ccccc1)NC(=O)[C@H](CC(N)=O)NC(=O)[C@@H]1CCCN1C(=O)[C@H](CO)NC(=O)[C@H](CO)NC(=O)[C@H](Cc1c[nH]cn1)NC(=O)[C@H](CCCNC(=N)N)NC(=O)[C@H](CC(C)C)NC(=O)[C@H](Cc1ccccc1)NC(=O)[C@H](CC(N)=O)NC(=O)[C@H](C)NC(=O)[C@H](CC(C)C)NC(=O)[C@H](CCCNC(=N)N)NC(=O)[C@H](CCC(N)=O)NC(=O)[C@@H](NC(=O)[C@H](C)NC(=O)[C@@H]1CSSC[C@H](NC(=O)[C@@H](N)CCCCNC(=O)COCCOCCNC(=O)CCCCCCCCCCCCCCCCCCC(=O)O)C(=O)N[C@@H](CC(N)=O)C(=O)N[C@@H]([C@@H](C)O)C(=O)N[C@@H](C)C(=O)N[C@@H]([C@@H](C)O)C(=O)N1)[C@@H](C)O)C(=O)N1CCC[C@H]1C(=O)N[C@@H](CO)C(=O)N[C@@H](CO)C(=O)N[C@H](C(=O)N[C@@H](CC(N)=O)C(=O)N[C@H](C(=O)NCC(=O)N[C@@H](Cc1c[nH]cn1)C(=O)N[C@@H](CC(N)=O)C(=O)N[C@H](C(=O)N[C@@H](Cc1ccc(O)cc1)C(N)=O)[C@@H](C)O)C(C)C)[C@@H](C)O
notes: also called compound 91
Turning to B1, the IC50 in experiment [1] was found to be 29.4 nM; in experiment [2], 0.386 nM. For the same molecule, the “Ratio rCT/rAmylin binding” value in experiment [3] was 76.3. Further, the “Ratio hCT/hAmylin binding” value in experiment [4] was found to be 101.

B2: N^ε1-[2-[2-[2-[[2-[2-[2-[[(4S)-4-carboxy-4-(19-carboxynonadecanoylamino)butanoyl]amino]ethoxy]ethoxy]acetyl]amino]ethoxy]ethoxy]acetyl]-[Arg17,Pro21,Pro27,His34 … (peptide)
peptide: K([AEEA-AEEA-γGlu-C20 diacid])CNTATCATQRLANFLRHSSPNFGAIPSSTNVGHNTY-NH2
modifications: disulfide 2-7; N-terminus assumed
SMILES: CC[C@H](C)[C@H](NC(=O)[C@H](C)NC(=O)CNC(=O)[C@H](Cc1ccccc1)NC(=O)[C@H](CC(N)=O)NC(=O)[C@@H]1CCCN1C(=O)[C@H](CO)NC(=O)[C@H](CO)NC(=O)[C@H](Cc1c[nH]cn1)NC(=O)[C@H](CCCNC(=N)N)NC(=O)[C@H](CC(C)C)NC(=O)[C@H](Cc1ccccc1)NC(=O)[C@H](CC(N)=O)NC(=O)[C@H](C)NC(=O)[C@H](CC(C)C)NC(=O)[C@H](CCCNC(=N)N)NC(=O)[C@H](CCC(N)=O)NC(=O)[C@@H](NC(=O)[C@H](C)NC(=O)[C@@H]1CSSC[C@H](NC(=O)[C@@H](N)CCCCNC(=O)COCCOCCNC(=O)COCCOCCNC(=O)CC[C@H](NC(=O)CCCCCCCCCCCCCCCCCCC(=O)O)C(=O)O)C(=O)N[C@@H](CC(N)=O)C(=O)N[C@@H]([C@@H](C)O)C(=O)N[C@@H](C)C(=O)N[C@@H]([C@@H](C)O)C(=O)N1)[C@@H](C)O)C(=O)N1CCC[C@H]1C(=O)N[C@@H](CO)C(=O)N[C@@H](CO)C(=O)N[C@H](C(=O)N[C@@H](CC(N)=O)C(=O)N[C@H](C(=O)NCC(=O)N[C@@H](Cc1c[nH]cn1)C(=O)N[C@@H](CC(N)=O)C(=O)N[C@H](C(=O)N[C@@H](Cc1ccc(O)cc1)C(N)=O)[C@@H](C)O)C(C)C)[C@@H](C)O
notes: also called compound 97
For B2, the results for the half-maximal inhibitory concentration (IC50) in experiment [1] and in experiment [2] were 159 nM and 2.24 nM, respectively. Besides, the “Ratio rCT/rAmylin binding” value in experiment [3] was determined as 71.1. In addition, the “Ratio hCT/hAmylin binding” value in experiment [4] is 104.

B3: N^ε1-[2-[2-[2-[[2-[2-[2-[[(4S)-4-carboxy-4-(19-carboxynonadecanoylamino)butanoyl]amino]ethoxy]ethoxy]acetyl]amino]ethoxy]ethoxy]acetyl]-[Arg17,Pro21,Pro27,Arg34 … (peptide)
peptide: K([AEEA-AEEA-γGlu-C20 diacid])CNTATCATQRLANFLRHSSPNFGAIPSSTNVGRNTY-NH2
modifications: disulfide 2-7; N-terminus assumed
SMILES: CC[C@H](C)[C@H](NC(=O)[C@H](C)NC(=O)CNC(=O)[C@H](Cc1ccccc1)NC(=O)[C@H](CC(N)=O)NC(=O)[C@@H]1CCCN1C(=O)[C@H](CO)NC(=O)[C@H](CO)NC(=O)[C@H](Cc1c[nH]cn1)NC(=O)[C@H](CCCNC(=N)N)NC(=O)[C@H](CC(C)C)NC(=O)[C@H](Cc1ccccc1)NC(=O)[C@H](CC(N)=O)NC(=O)[C@H](C)NC(=O)[C@H](CC(C)C)NC(=O)[C@H](CCCNC(=N)N)NC(=O)[C@H](CCC(N)=O)NC(=O)[C@@H](NC(=O)[C@H](C)NC(=O)[C@@H]1CSSC[C@H](NC(=O)[C@@H](N)CCCCNC(=O)COCCOCCNC(=O)COCCOCCNC(=O)CC[C@H](NC(=O)CCCCCCCCCCCCCCCCCCC(=O)O)C(=O)O)C(=O)N[C@@H](CC(N)=O)C(=O)N[C@@H]([C@@H](C)O)C(=O)N[C@@H](C)C(=O)N[C@@H]([C@@H](C)O)C(=O)N1)[C@@H](C)O)C(=O)N1CCC[C@H]1C(=O)N[C@@H](CO)C(=O)N[C@@H](CO)C(=O)N[C@H](C(=O)N[C@@H](CC(N)=O)C(=O)N[C@H](C(=O)NCC(=O)N[C@@H](CCCNC(=N)N)C(=O)N[C@@H](CC(N)=O)C(=O)N[C@H](C(=O)N[C@@H](Cc1ccc(O)cc1)C(N)=O)[C@@H](C)O)C(C)C)[C@@H](C)O
notes: also called compound 95
With B3, the figures for the IC50 in experiment [1] and in experiment [2] were 388 nM and 5.45 nM, respectively. Further, in experiment [3], the “Ratio rCT/rAmylin binding” value stood at 71.3. Also, the “Ratio hCT/hAmylin binding” value in experiment [4] worked out at 63.4.

B4: N^ε1-[2-[2-[2-(19-carboxynonadecanoylamino)ethoxy]ethoxy]acetyl]-[His14,Arg17,Pro21,Pro27]-h-amylin (peptide)
peptide: K([AEEA-C20 diacid])CNTATCATQRLAHFLRHSSPNFGAIPSSTNVGSNTY-NH2
modifications: disulfide 2-7; N-terminus assumed
SMILES: CC[C@H](C)[C@H](NC(=O)[C@H](C)NC(=O)CNC(=O)[C@H](Cc1ccccc1)NC(=O)[C@H](CC(N)=O)NC(=O)[C@@H]1CCCN1C(=O)[C@H](CO)NC(=O)[C@H](CO)NC(=O)[C@H](Cc1c[nH]cn1)NC(=O)[C@H](CCCNC(=N)N)NC(=O)[C@H](CC(C)C)NC(=O)[C@H](Cc1ccccc1)NC(=O)[C@H](Cc1c[nH]cn1)NC(=O)[C@H](C)NC(=O)[C@H](CC(C)C)NC(=O)[C@H](CCCNC(=N)N)NC(=O)[C@H](CCC(N)=O)NC(=O)[C@@H](NC(=O)[C@H](C)NC(=O)[C@@H]1CSSC[C@H](NC(=O)[C@@H](N)CCCCNC(=O)COCCOCCNC(=O)CCCCCCCCCCCCCCCCCCC(=O)O)C(=O)N[C@@H](CC(N)=O)C(=O)N[C@@H]([C@@H](C)O)C(=O)N[C@@H](C)C(=O)N[C@@H]([C@@H](C)O)C(=O)N1)[C@@H](C)O)C(=O)N1CCC[C@H]1C(=O)N[C@@H](CO)C(=O)N[C@@H](CO)C(=O)N[C@H](C(=O)N[C@@H](CC(N)=O)C(=O)N[C@H](C(=O)NCC(=O)N[C@@H](CO)C(=O)N[C@@H](CC(N)=O)C(=O)N[C@H](C(=O)N[C@@H](Cc1ccc(O)cc1)C(N)=O)[C@@H](C)O)C(C)C)[C@@H](C)O
notes: also called compound 90
B4: the concentration for half-maximal inhibition (IC50) in experiment [1] turned out to be 18.2 nM; in experiment [2], 0.246 nM. Besides, the “Ratio rCT/rAmylin binding” value in experiment [3] came to 74.1. Further, in experiment [4], the “Ratio hCT/hAmylin binding” value was 42.2.
